In patent US20140302035A1 (MERRIMACK PHARMACEUTICALS, published 2014) one finds Kd and koff data, which are given here for four molecules.

B1: Ab#3 (bispecific antibody, human IgG1, kappa)
heavy: QLQLQESGPGLVKPSETLSLTCTVSGGSISSSVYYWSWIRQPPGKGLEWIGVIYPSGNTYYSPSLKSRVTISVDTSKNQFSLKLSSVTAADTAVYYCARTIYDLFDIWGQGTMVTVSSASTKGPSVFPLAPSSKSTSGGTAALGCLVKDYFPEPVTVSWNSGALTSGVHTFPAVLQSSGLYSLSSVVTVPSSSLGTQTYICNVNHKPSNTKVDKKVEPKSCDKTHTCPSCPAPEFLGGPSVFLFPPKPKDTLMISRTPEVTCVVVDVSQEDPEVQFNWYVDGVEVHNAKTKPREEQFNSKYRVVSVLTVLHQDWLNGKEYKCKVSNKGLPSSIEKTISKAKGQPREPQVYTLPPSREEMTKNQVSLSCAVKGFYPSDIAVEWESNGQPENNYKTTPPVLDSDGSFFLVSKLTVDKSRWQQGNVFSCSVMHEALHNHYTQKSLSLSKSCDKTGGGGSGGGGSGGGGSGGGGSGGGGSGGGGSGGGGSGGGGSCPSCPAPEFLGGPSVFLFPPKPKDTLMISRTPEVTCVVVDVSQEDPEVQFNWYVDGVEVHNAKTKPREEQFNSDYRVVSVLTVLHQDWLNGKEYKCKVSNKGLPSSIEKTISKAKGQPREPQVYTLPPSREEMTKNQVSLWCLVKGFYPSDIAVEWESNGQPENNYKTTPPVLDSDGSFFLYSKLTVDKSRWQQGNVFSCSVMHEALHNHYTQKSLSLSGECGGGGSGGGGSQVQLVQSGSELKKPGESVKVSCKASGYTFTNYGMNWVRQAPGQGLKWMGWINTYTGESTYADDFKGRFAFSLDTSASTAYLQISSLKAEDTAVYFCARFAIKGDYWGQGTLVTVSSASTGGGGSGGGGSGGGGSGGGGSDIVMTQSPLSLPVTPGEPASISCRSTKSLLHSDGITYLYWYLQKPGQSPQLLIYQLSNLASGVPDRFSSSGSGTDFTLKISRVEAEDEGVYYCAQNLEIPRTFGQGTKVEIK
light: DIQMTQSPSSVSASVGDRVTITCRASQGISSWLAWYQQKPGKAPKLLIYAASSLQSGVPSRFSGSGSGTDFTLTISSLQPEDFATYYCLQANSFPPTFGGGTKVEIKRTVAAPSVFIFPPSDEQLKSGTASVVCLLNNFYPREAKVQWKVDNALQSGNSQESVTEQDSKDSTYSLSSTLTLSKADYEKHKVYACEVTHQGLSSPVTKSFNRGEC
notes: Anti-c-Met Fab / tandem Fc / anti-EpCAM scFv TFcBA; also called Antibody #3
B2: Ab#6 (bispecific antibody, human IgG1, kappa)
heavy: QLQLQESGPGLVKPSETLSLTCTVSGGSISSSVYYWSWIRQPPGKGLEWIGVIYPSGNTYYSPSLKSRVTISVDTSKNQFSLKLSSVTAADTAVYYCARTIYDLFDIWGQGTMVTVSSASTKGPSVFPLAPSSKSTSGGTAALGCLVKDYFPEPVTVSWNSGALTSGVHTFPAVLQSSGLYSLSSVVTVPSSSLGTQTYICNVNHKPSNTKVDKKVEPKSCDKTHTCPSCPAPEFLGGPSVFLFPPKPKDTLMISRTPEVTCVVVDVSQEDPEVQFNWYVDGVEVHNAKTKPREEQFNSKYRVVSVLTVLHQDWLNGKEYKCKVSNKGLPSSIEKTISKAKGQPREPQVYTLPPSREEMTKNQVSLSCAVKGFYPSDIAVEWESNGQPENNYKTTPPVLDSDGSFFLVSKLTVDKSRWQQGNVFSCSVMHEALHNHYTQKSLSLSKSCDKTGGGGSGGGGSGGGGSGGGGSGGGGSGGGGSGGGGSGGGGSCPSCPAPEFLGGPSVFLFPPKPKDTLMISRTPEVTCVVVDVSQEDPEVQFNWYVDGVEVHNAKTKPREEQFNSDYRVVSVLTVLHQDWLNGKEYKCKVSNKGLPSSIEKTISKAKGQPREPQVYTLPPSREEMTKNQVSLWCLVKGFYPSDIAVEWESNGQPENNYKTTPPVLDSDGSFFLYSKLTVDKSRWQQGNVFSCSVMHEALHNHYTQKSLSLSGECGGGGSGGGGSDIVMTQSPLSLPVTPGEPASISCRSTKSLLHSDGITYLYWYLQKPGQSPQLLIYQLSNLASGVPDRFSSSGSGTDFTLKISRVEAEDEGVYYCAQNLEIPRTFGGGTKLEIKRTGGGGSGGGGSGGGGSGGGGSQVQLVQSGAEVKKPGESVKISCKASGYTFTNYGMNWVRQAPGQGLKWMGWINTYTGESTYADDFKGRFAFSLDTSASTAYLQLSSLRSEDTAVYFCARFAIKGDYWGQGTLVTVSS
light: B1 light
notes: Anti-c-Met Fab / tandem Fc / anti-EpCAM scFv TFcBA; also called Antibody #6
B3: Ab#4 (bispecific antibody, human IgG1, kappa)
heavy: QLQLQESGPGLVKPSETLSLTCTVSGGSISSSVYYWSWIRQPPGKGLEWIGVIYPSGNTYYSPSLKSRVTISVDTSKNQFSLKLSSVTAADTAVYYCARTIYDLFDIWGQGTMVTVSSASTKGPSVFPLAPSSKSTSGGTAALGCLVKDYFPEPVTVSWNSGALTSGVHTFPAVLQSSGLYSLSSVVTVPSSSLGTQTYICNVNHKPSNTKVDKKVEPKSCDKTHTCPSCPAPEFLGGPSVFLFPPKPKDTLMISRTPEVTCVVVDVSQEDPEVQFNWYVDGVEVHNAKTKPREEQFNSKYRVVSVLTVLHQDWLNGKEYKCKVSNKGLPSSIEKTISKAKGQPREPQVYTLPPSREEMTKNQVSLSCAVKGFYPSDIAVEWESNGQPENNYKTTPPVLDSDGSFFLVSKLTVDKSRWQQGNVFSCSVMHEALHNHYTQKSLSLSKSCDKTGGGGSGGGGSGGGGSGGGGSGGGGSGGGGSGGGGSGGGGSCPSCPAPEFLGGPSVFLFPPKPKDTLMISRTPEVTCVVVDVSQEDPEVQFNWYVDGVEVHNAKTKPREEQFNSDYRVVSVLTVLHQDWLNGKEYKCKVSNKGLPSSIEKTISKAKGQPREPQVYTLPPSREEMTKNQVSLWCLVKGFYPSDIAVEWESNGQPENNYKTTPPVLDSDGSFFLYSKLTVDKSRWQQGNVFSCSVMHEALHNHYTQKSLSLSGECGGGGSGGGGSDIVMTQSPLSLPVTPGEPASISCRSTKSLLHSDGITYLYWYLQKPGQSPQLLIYQLSNLASGVPDRFSSSGSGTDFTLKISRVEAEDEGVYYCAQNLEIPRTFGQGTKVEIKRTGGGGSGGGGSGGGGSGGGGSGQVQLVQSGSELKKPGESVKVSCKASGYTFTNYGMNWVRQAPGQGLKWMGWINTYTGESTYADDFKGRFAFSLDTSASTAYLQISSLKAEDTAVYFCARFAIKGDYWGQGTLVTVSS
light: B1 light
notes: Anti-c-Met Fab / tandem Fc / anti-EpCAM scFv TFcBA; also called Antibody #4
B4: Ab#8 (bispecific antibody, human IgG1, kappa)
heavy: QLQLQESGPGLVKPSETLSLTCTVSGGSISSSVYYWSWIRQPPGKGLEWIGVIYPSGNTYYSPSLKSRVTISVDTSKNQFSLKLSSVTAADTAVYYCARTIYDLFDIWGQGTMVTVSSASTKGPSVFPLAPSSKSTSGGTAALGCLVKDYFPEPVTVSWNSGALTSGVHTFPAVLQSSGLYSLSSVVTVPSSSLGTQTYICNVNHKPSNTKVDKKVEPKSCDKTHTCPSCPAPEFLGGPSVFLFPPKPKDTLMISRTPEVTCVVVDVSQEDPEVQFNWYVDGVEVHNAKTKPREEQFNSKYRVVSVLTVLHQDWLNGKEYKCKVSNKGLPSSIEKTISKAKGQPREPQVYTLPPSREEMTKNQVSLSCAVKGFYPSDIAVEWESNGQPENNYKTTPPVLDSDGSFFLVSKLTVDKSRWQQGNVFSCSVMHEALHNHYTQKSLSLSKSCDKTGGGGSGGGGSGGGGSGGGGSGGGGSGGGGSGGGGSGGGGSCPSCPAPEFLGGPSVFLFPPKPKDTLMISRTPEVTCVVVDVSQEDPEVQFNWYVDGVEVHNAKTKPREEQFNSDYRVVSVLTVLHQDWLNGKEYKCKVSNKGLPSSIEKTISKAKGQPREPQVYTLPPSREEMTKNQVSLWCLVKGFYPSDIAVEWESNGQPENNYKTTPPVLDSDGSFFLYSKLTVDKSRWQQGNVFSCSVMHEALHNHYTQKSLSLSGECGGGGSGGGGSQVQLVQSGAEVKKPGESVKISCKASGYTFTNYGMNWVRQAPGQGLKWMGWINTYTGESTYADDFKGRFAFSLDTSASTAYLQLSSLRSEDTAVYFCARFAIKGDYWGQGTLVTVSSASTGGGGSGGGGSGGGGSGGGGSDIVMTQSPLSLPVTPGEPASISCRSTKSLLHSDGITYLYWYLQKPGQSPQLLIYQMSNLASGVPDRFSSSGSGTDFTLKISRVEAEDEGVYYCAQNLEIPRTFGGGTKLEIKRT
light: B1 light
notes: Anti-c-Met Fab / tandem Fc / anti-EpCAM scFv TFcBA; also called Antibody #8

For the assay, the target named is T1, Human EpCAM-Fc-his tagged (human).
T1 construct: also called Recombinant polyhistidine-tagged EpCAM-Fc; recombinant EpCAM
T1 sequence (chain, as listed by the source): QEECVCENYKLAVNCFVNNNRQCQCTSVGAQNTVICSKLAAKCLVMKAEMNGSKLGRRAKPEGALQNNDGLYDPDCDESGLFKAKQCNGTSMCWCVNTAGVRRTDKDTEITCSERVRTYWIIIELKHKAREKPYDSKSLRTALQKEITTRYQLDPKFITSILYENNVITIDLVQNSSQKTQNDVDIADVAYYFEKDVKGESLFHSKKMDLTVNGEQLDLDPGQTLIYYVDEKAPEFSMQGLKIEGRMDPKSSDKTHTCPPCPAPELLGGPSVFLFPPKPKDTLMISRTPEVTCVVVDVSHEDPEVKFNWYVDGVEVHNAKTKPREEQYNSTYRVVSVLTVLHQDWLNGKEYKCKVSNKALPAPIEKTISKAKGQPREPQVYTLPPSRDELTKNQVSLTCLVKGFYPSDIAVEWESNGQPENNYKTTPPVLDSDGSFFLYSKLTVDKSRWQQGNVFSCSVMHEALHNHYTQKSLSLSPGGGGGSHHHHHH
As to the kind of experiment: BLI (ForteBio Octet), antibody loaded on Protein A tips, recombinant polyhistidine-tagged EpCAM-Fc in solution, 1:1 model. How it is done:
For Octet analysis, all reagents and samples are brought to room temperature. Protein A sensor tips (ForteBio, #18-5010) are hydrated for 10 minutes in 1×PBS. Assay steps include: 1-2 minutes of equilibration in 1×PBS, 4 minutes of antibody loading (concentration of 50 μg/ml in 1×PBS), 1-2 minutes of baseline stabilization, 4 minutes of antibody:antigen association, and 4 minutes of antibody:antigen dissociation. 1×PBS is used as the matrix throughout. Data are analyzed with Octet Data Analysis software, processed, and fit to a 1:1 binding model to determine kinetic parameters (Kd, kₒₙ and kdiss).
Table A-2 describes approximate EpCAM binding affinity and dissociation rate as determined for Ab#1, Ab#2, Ab#3, Ab#4, Ab#5, Ab#6, Ab#7, Ab#8, Ab#9, Ab#10, Ab#11, Ab#12, and Ab#13.
A general note: BLI is a label-free optical method that tracks binding on a fibre tip over time.
What is called Kd is a measure of binding affinity in units of concentration. As a reminder, the koff is a measure of how fast the partners let go of each other. Turning to B1, the dissociation constant (Kd) is 17 nM and the dissociation rate constant (koff) was 0.00174 s⁻¹.
The matching figures for B2: 11.2 nM and 0.00122 s⁻¹.
The matching figures for B3: 19.4 nM and 0.00174 s⁻¹.
The matching figures for B4: 16.7 nM and 0.00098 s⁻¹.
